Here are results for 8 molecules from patent US20180037644A1 (Pfizer, published 2018).

Numbering of substitutions follows the chain as printed.

T1: native human IL-33 from human lung fibroblast (HFL-1) lysate (human, UniProt O95760 1-270, limits assumed)
T1 sequence (looked up): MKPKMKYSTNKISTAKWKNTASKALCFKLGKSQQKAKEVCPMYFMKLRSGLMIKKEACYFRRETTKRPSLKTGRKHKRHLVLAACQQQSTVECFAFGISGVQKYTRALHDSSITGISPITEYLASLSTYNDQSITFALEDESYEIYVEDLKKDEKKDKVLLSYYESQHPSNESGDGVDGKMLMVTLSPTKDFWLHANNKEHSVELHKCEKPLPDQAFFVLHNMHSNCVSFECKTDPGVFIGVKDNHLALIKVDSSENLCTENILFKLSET

T2: cynomolgus monkey IL-33 (cys mut) (cynomolgus monkey)
T2 chain: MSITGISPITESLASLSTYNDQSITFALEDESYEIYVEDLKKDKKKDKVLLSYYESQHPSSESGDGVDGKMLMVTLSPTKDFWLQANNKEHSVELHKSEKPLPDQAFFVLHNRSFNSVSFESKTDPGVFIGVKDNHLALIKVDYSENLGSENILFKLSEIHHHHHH

T3: human IL-33 (mm2) (human, UniProt O95760 112-270)
T3 chain: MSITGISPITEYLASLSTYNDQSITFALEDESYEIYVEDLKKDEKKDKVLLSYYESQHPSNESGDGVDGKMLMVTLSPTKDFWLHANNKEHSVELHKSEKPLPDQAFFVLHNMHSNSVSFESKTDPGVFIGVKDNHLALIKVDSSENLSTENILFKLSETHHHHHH

B1: 30B11 chimera/hu J (antibody, human IgG1, kappa, V domains shown)
VH: QVKLLQSGAALVKPGASVKMSCATSGFSFTDYWVSWVKQSHGKGLEWIGEIYPNSGADNFNENFKGKATLTVDKSTSTAYMELSRLTSEDSAIYYCTRGPYYYSTQIIFAYWGQGTLVTVSS
VL: NIVMTQSPKSMSISVGDRVTMNCKASQNVGNNLAWYQQKPGQSPKLLIYYASNRYTGVPDRFTGGGYGTDFTLTINSVQAEDAAFYYCQRIYNSPPTFGGGTKVEIKR
notes: also called 30B11 hu Jseg
B2: 30A1 chimera/hu J (antibody, human IgG1, kappa)
heavy: QVNLLQSGATLVKPGASMKMSCKASGYSFTDYWVSWVKQSHGKSLEWIGEIYPNSGANNFNKEFKDKATLTVDKSTSTAYMELTRLTSEDSAVYYCTRGPYYYSSQIIFAYWGQGTLVTVSSASTKGPSVFPLAPSSKSTSGGTAALGCLVKDYFPEPVTVSWNSGALTSGVHTFPAVLQSSGLYSLSSVVTVPSSSLGTQTYICNVNHKPSNTKVDKKVEPKSCDKTHTCPPCPAPEAAGAPSVFLFPPKPKDTLMISRTPEVTCVVVDVSHEDPEVKFNWYVDGVEVHNAKTKPREEQYNSTYRVVSVLTVLHQDWLNGKEYKCKVSNKALPAPIEKTISKAKGQPREPQVYTLPPSREEMTKNQVSLTCLVKGFYPSDIAVEWESNGQPENNYKTTPPVLDSDGSFFLYSKLTVDKSRWQQGNVFSCSVMHEALHNHYTQKSLSLSPGK
light: IIVMTQSPKSMSISVGDRVTMNCKASQNVGNNIAWYRQKPGQSPELLIYYASNRYTGVPDRFTGGGYGTDFTLTINSVQAEDAAFYYCQRIYNSPPTFGGGTKVEIKRTVAAPSVFIFPPSDEQLKSGTASVVCLLNNFYPREAKVQWKVDNALQSGNSQESVTEQDSKDSTYSLSSTLTLSKADYEKHKVYACEVTHQGLSSPVTKSFNRGEC
notes: also called 30A1 hu Jseg
B3: 9B3 chimera (antibody, human IgG1, kappa)
heavy: EVQLVETGGGLVQPGRSLKLSCVASGFTFSNYWMYWIRQAPGMGLEWVSSINNDGGNTYYLDSVKGRFTISRNNAENTVYLQMNSLRSEDTATYYCAKGHYSYSSYSFSYWGQGTLVTVSSASTKGPSVFPLAPSSKSTSGGTAALGCLVKDYFPEPVTVSWNSGALTSGVHTFPAVLQSSGLYSLSSVVTVPSSSLGTQTYICNVNHKPSNTKVDKKVEPKSCDKTHTCPPCPAPEAAGAPSVFLFPPKPKDTLMISRTPEVTCVVVDVSHEDPEVKFNWYVDGVEVHNAKTKPREEQYNSTYRVVSVLTVLHQDWLNGKEYKCKVSNKALPAPIEKTISKAKGQPREPQVYTLPPSREEMTKNQVSLTCLVKGFYPSDIAVEWESNGQPENNYKTTPPVLDSDGSFFLYSKLTVDKSRWQQGNVFSCSVMHEALHNHYTQKSLSLSPGK
light: DIQMTQSPSVLSASVGDRVTLSCKASHNINKHLDWCQQKVGEAPKLLIYFTNNLQTGIPSRFSGSGSGTDYTLTISSLQPEDVATYFCFQYNSGWTFGGGTKLELKRTVAAPSVFIFPPSDEQLKSGTASVVCLLNNFYPREAKVQWKVDNALQSGNSQESVTEQDSKDSTYSLSSTLTLSKADYEKHKVYACEVTHQGLSSPVTKSFNRGEC
notes: also called chimeric 9B3
B4: 14D8 chimera/hu J (antibody, human IgG1, kappa, V domains shown)
VH: EVQLVDSGGDQVQPGRSLKLSCVASGFIFKNYWMTWIRQVPGKGLEWIASITNSGGNTYYPDSVKGRFTISRDNAKDTLYLQMNSLRSEDTATYYCARDRRYNSGSPFAYWGQGTLVTVSS
VL: DIQLTQSPSTLPASLGERVTISCRTSQSINNNLCWYQQKPDGTVKRLIYSTSTLESGVPSRFSGSGSGTDYSLSISSLESQDFAMYYCLQYATYPWTFGQGTKVEIKR
notes: also called 14D8 huJseg
B5: 12F9 chimera (antibody, human IgG1, kappa, V domains shown)
VH: B4 VH with D6E, Q11L, A24T, I48V, S54T, N57A, A75S, K76E, D77N
VL: DIQLTQSPSTLAASLGERVTISCRASQSISNSLIWFQQKPDGTIKRLIYSSSTLESGVPSRFSGSGSGTDYSLSISSLESEDFAMYYCLQYATYPWTFGGGTKLELRR
notes: also called chimeric 12F9
B6: 9B3 chimera/hu J (antibody, human IgG1, kappa)
heavy: B3 heavy
light: B3 light with G99Q, L103V, L105I
notes: also called 9B3 chimera huJseg
B7: IL33-11 (antibody, human IgG1, kappa, V domains shown)
VH: EVQLVESGGGLVQPGGSLRLSCAASGFTFSNYWMYWVRQAPGKGLEWVASITPNGGNTYYPDSVKGRFTISRDNAKNSLYLQMNSLRAEDTAVYYCARGHYYYTSYSLGYWGQGTLVTVSS
VL: DIQMTQSPSSLSASVGDRVTITCKASQNINKHLDWYQQKPGKAPKLLIYFTNNLQTGVPSRFSGSGSGTDFTLTISSLQPEDFATYYCFQYNNGWTFGGGTKVEIKR
B8: IL33-13 (antibody, human IgG1, kappa, V domains shown)
VH: B7 VH with N31S, Y102S, T104S, L108F, G109S
VL: B7 VL

The target in one assay is T1, native human IL-33 from human lung …. The experiment in a line: cell-based or functional assay.
Consider B1, for which the “% inhibition 0.1 nM Ab, HEK293 ST2 NFkB” value was found to be 102%; the “% inhibition 1 nM Ab, HEK293 ST2 NFkB” value is 109%; the “% inhibition 10 nM Ab, HEK293 ST2 NFkB” value is 110%.
For B2 the same measures were 63.8%, 98.5% and 107%.
With B3, the “% inhibition 0.1 nM Ab, HEK293 ST2 NFkB” value was found to be 52.5%; the “% inhibition 1 nM Ab, HEK293 ST2 NFkB” value worked out at 96%; the “% inhibition 10 nM Ab, HEK293 ST2 NFkB” value was determined as 111%.
As for B4, the “% inhibition 0.1 nM Ab, HEK293 ST2 NFkB” value was 61.1%; the “% inhibition 1 nM Ab, HEK293 ST2 NFkB” value was found to be 99.6%; the “% inhibition 10 nM Ab, HEK293 ST2 NFkB” value is 107%.
For B5 the same measures were 44.3%, 82.6% and 104%.

The target in another assay is T2, cynomolgus monkey IL-33 (cys mut). As to the kind of experiment: cell-based or functional assay.
As for B1, the “IC50, HEK293 ST2 NFkB” value worked out at 0.11 nM.
As usually defined, the % inhibition is the drop in the measured response relative to a control, in per cent. For B3, the “% inhibition at 20 nM, HEK293 ST2 NFkB” value was found to be 35%.
The same measure, in the same setting: next, B4: 11%.
On the same count and under the same terms, next, B5: 3.6%.

A further assay deals with T3, human IL-33 (mm2). The experiment in a line: cell-based or functional assay.
B1: the “IC50, HEK293 ST2 NFkB” value was found to be 0.028 nM.
In the case of B6, the “IC50, HEK293 ST2 NFkB” value amounted to 0.056 nM.
As for B4, the “IC50, HEK293 ST2 NFkB” value was found to be 2.03 nM.
With B5, the “IC50, HEK293 ST2 NFkB” value worked out at 2.71 nM.

The next assay deals with T3, human IL-33 (mm2). The experiment in a line: cell-based or functional assay. This is another data set of the same source.
For the molecule B6, the “estimated IC50, HEK293 ST2 NFkB” value was 0.061 nM.

The target in a further assay is T3, human IL-33 (mm2). The experiment in a line: BIAcore, IgG captured by anti-human Fc, 125 nM IL-33 (mm2). On the procedure:
(§1) Binding to human and cynomolgus monkey IL-33 was measured by surface plasmon resonance using a BIAcore T200 instrument. An anti-human Fc antibody was immobilized on a CM5 chip, and anti-IL-33 antibodies were captured.
A general note: In SPR one partner is held on a chip, and binding of the other changes the refractive index at the surface.
Broadly, the koff is the first-order rate constant of dissociation. The molecule B6 came in with a koff of 0.000451 s⁻¹.

The next assay concerns the target T2, cynomolgus monkey IL-33 (cys mut). As to the kind of experiment: SPR, IgG captured by anti-human Fc, IL-33 in solution. On the procedure: as §1
A word on the Kd: it is a measure of binding affinity in units of concentration. B1 yielded a Kd of 0.148 nM.
B2 came in with a Kd of 0.197 nM.
On the same count and under the same terms, for B3 the value was 0.836 nM.
Regarding B4, the binding result was “no binding (tested: 125 nM)”.
Same read-out and setting: for B5 the value was “no binding (tested: 125 nM)”.

Another assay has as its target T3, human IL-33 (mm2). The description is as above. On the procedure:
as §1
Turning to B1, the Kd came to 0.367 nM.
On the same count and under the same terms, next, B2: 0.54 nM; B3: 0.457 nM; B4: 0.394 nM.
Same read-out and setting: for B5 the value was 0.408 nM.

Another assay addresses T2, cynomolgus monkey IL-33 (cys mut). The experiment in a line: cell-based or functional assay. This is another data set of the same source.
As to B7, the “IC50, HEK293 ST2 NFkB” value came out at 0.204 nM.
In the case of B8, the “IC50, HEK293 ST2 NFkB” value amounted to 7.65 nM.

Another assay has as its target T3, human IL-33 (mm2). The experiment in a line: cell-based or functional assay. The source holds these as a separate data set.
In the case of B6, the “IC50, HEK293 ST2 NFkB” value came to 0.264 nM.
On the same count and under the same terms, for B7 the value was 0.09 nM; for B8, 0.22 nM.
